Measured values: PMC10090020

Biological target: mCherry-CARACB(G15V) (barley (Hordeum vulgare))
Experiment: FRET or BRET; FLIM-FRET in barley epidermal cells transiently co-expressing meGFP-RIC157 (donor) and mCherry-RACB forms (acceptor) after particle bombardment; meGFP lifetime measured at the equatorial plane; at least 10 cells per interaction in two replicates

meGFP fluorescence lifetime: 2.2 ns
Substance: meGFP-RIC157 (natural protein)
